# From patent US20090192048A1, “METHOD OF PRODUCING A […] AGENT FOR BINDING A LIGAND” (priority 2005, published 2009)
# Ends that are not written are not given here.
# Assay: Retention of peptides in V-bottomed polypropylene wells
# Type: physicochemical
# Settings: V-bottom wells; 500V scan
# Protocol: (§1) The retention of peptides 2DOS-1 to 2DOS-16 (see above) on polypropylene wells of different geometries was investigated:
# (§2) 10 mM tris-HCl (pH 8.0) in 50% (v/v) aqueous acetonitrile was used as the solvent for the peptides and for TAMRA.
# (§3) 1 μl aliquots of 10 μM peptides 2DOS-1 to 2DOS-16 and 10 μM TAMRA were pipetted into the wells of a Costar V-bottomed polypropylene microtitre plate and a Greiner flat-bottomed polypropylene microtitre plate according to the following scheme as shown in FIG. 22:
# (§4) The peptide samples were allowed to evaporate to dryness in the dark.
# (§5) The peptide samples in the top two rows of the microtitre plates were then incubated for 15′ minutes at room temperature in 250 μl of 1 M NaCl in 10 mM tris-HCl (pH 8.0).
# (§6) After incubation, the wash buffer was pipetted up and down eight times in the well before removing the supernatant.
# (§7) The washed and untreated peptide samples were then resuspended in 50 μl of 10 mM tris-HCl (pH 8.0) in 50% (v/v) aqueous acetonitrile.
# (§8) The microtitre plates were imaged at 200 μm resolution on a Typhoon Trio Plus variable mode imager (Amersham Biosciences) with the green (532 nm) laser and the 580 BP 30 filter at the PMT voltages indicated below and at normal sensitivity. The scan height was set at the platen and the sample was pressed during, scanning.
# (§9) The fluorescence images were analysed using ImageQuant TL v2003.03 (Amersham Biosciences).
row,Substance,Percent retention
1,N-TAMRA-Phe-Asp- Phe-Asp-Phe-Asp- Phe-Asp-Phe-C ({TAMRA}-FDFDFDFDF) [Peptide 2DOS-10],33%
2,N-TAMRA-Asp-Ser- Ala-Ser-Ser-Ser- Lys-C ({TAMRA}-DSASSSK) [Peptide 2DOS-7],9%

# Same assay, conditions: V-bottom wells; 500V scan; unwashed
row,Substance,Untreated fluorescence
1,N-TAMRA-Phe-Asp- Phe-Asp-Phe-Asp- Phe-Asp-Phe-C ({TAMRA}-FDFDFDFDF) [Peptide 2DOS-10],"8,445,090"
2,N-TAMRA-Asp-Ser- Ala-Ser-Ser-Ser- Lys-C ({TAMRA}-DSASSSK) [Peptide 2DOS-7],"8,674,544"

# Same assay, conditions: V-bottom wells; 500V scan; washed 15 minutes in 1 M NaCl in 10 mM tris-HCl (pH 8.0)
row,Substance,Retained fluorescence
1,N-TAMRA-Phe-Asp- Phe-Asp-Phe-Asp- Phe-Asp-Phe-C ({TAMRA}-FDFDFDFDF) [Peptide 2DOS-10],"2,773,876"
2,N-TAMRA-Asp-Ser- Ala-Ser-Ser-Ser- Lys-C ({TAMRA}-DSASSSK) [Peptide 2DOS-7],"746,596"

# Assay: Retention of peptides on Costar polypropylene V-bottom wells
# Type: physicochemical
# Settings: 400V scan
# Protocol: (§10) The retention of peptides 2DOS-1 to 2DOS-16 (see above) on polypropylene and polystyrene surfaces was compared:
# (§11) 5 mM tris-HCl (pH 8.0) in 75% (v/v) aqueous acetonitrile was used as the solvent for the peptides and for TAMRA.
# (§12) 20 μl aliquots of 5 μM peptides 2DOS-1 to 2DOS-16 and 5 μM TAMRA were pipetted into the wells of a Costar V-bottomed polypropylene microtitre plate, a Greiner V-bottomed polypropylene microtitre plate, and a Greiner V-bottomed polystyrene microtitre plate according to the scheme shown in FIG. 26:
# as §4
# (§13) The peptide samples in the top two rows of the microtitre plates were then incubated for 15 minutes at room temperature in 250 μl of 1 M NaCl in 10 mM tris-HCl (pH 8.0).
# as §6, §7
# as §8, with “+3 mm” for “the platen”, “during” for “during,”
# as §9
row,Substance,Percent retention
1,N-TAMRA-Phe-Asp- Phe-Asp-Phe-Asp- Phe-Asp-Phe-C ({TAMRA}-FDFDFDFDF) [Peptide 2DOS-10],24%
2,N-TAMRA-Asp-Ser- Ala-Ser-Ser-Ser- Lys-C ({TAMRA}-DSASSSK) [Peptide 2DOS-7],6%

# Same assay, conditions: 400V scan, unwashed
row,Substance,Untreated fluorescence
1,N-TAMRA-Phe-Asp- Phe-Asp-Phe-Asp- Phe-Asp-Phe-C ({TAMRA}-FDFDFDFDF) [Peptide 2DOS-10],"6,043,214"
2,N-TAMRA-Asp-Ser- Ala-Ser-Ser-Ser- Lys-C ({TAMRA}-DSASSSK) [Peptide 2DOS-7],"5,139,578"

# Same assay, conditions: 400V scan, washed 15 minutes in 1 M NaCl in 10 mM tris-HCl (pH 8.0)
row,Substance,Retained fluorescence
1,N-TAMRA-Phe-Asp- Phe-Asp-Phe-Asp- Phe-Asp-Phe-C ({TAMRA}-FDFDFDFDF) [Peptide 2DOS-10],"1,439,375"
2,N-TAMRA-Asp-Ser- Ala-Ser-Ser-Ser- Lys-C ({TAMRA}-DSASSSK) [Peptide 2DOS-7],"326,328"

# Assay: Retention of peptides in flat-bottomed polypropylene wells
# Type: physicochemical
# Settings: flat-bottom wells; 500V scan
# Protocol: as §1, §2, §3, §4, §5, §6, §7, §8, §9
row,Substance,Percent retention
1,N-TAMRA-Phe-Asp- Phe-Asp-Phe-Asp- Phe-Asp-Phe-C ({TAMRA}-FDFDFDFDF) [Peptide 2DOS-10],39%
2,N-TAMRA-Asp-Ser- Ala-Ser-Ser-Ser- Lys-C ({TAMRA}-DSASSSK) [Peptide 2DOS-7],13%

# Same assay, conditions: flat-bottom wells; 500V scan; unwashed
row,Substance,Untreated fluorescence
1,N-TAMRA-Phe-Asp- Phe-Asp-Phe-Asp- Phe-Asp-Phe-C ({TAMRA}-FDFDFDFDF) [Peptide 2DOS-10],"13,661,609"
2,N-TAMRA-Asp-Ser- Ala-Ser-Ser-Ser- Lys-C ({TAMRA}-DSASSSK) [Peptide 2DOS-7],"10,189,473"

# Same assay, conditions: flat-bottom wells; 500V scan; washed 15 minutes in 1 M NaCl in 10 mM tris-HCl (pH 8.0)
row,Substance,Retained fluorescence
1,N-TAMRA-Phe-Asp- Phe-Asp-Phe-Asp- Phe-Asp-Phe-C ({TAMRA}-FDFDFDFDF) [Peptide 2DOS-10],"5,353,630"
2,N-TAMRA-Asp-Ser- Ala-Ser-Ser-Ser- Lys-C ({TAMRA}-DSASSSK) [Peptide 2DOS-7],"1,303,195"

# Assay: Retention of peptides on Greiner polystyrene V-bottom wells
# Type: physicochemical
# Settings: 400V scan
# Protocol: as §10, §11, §12, §4, §13, §6, §7
# as §8, with “+3 mm” for “the platen”, “during” for “during,”
# as §9
row,Substance,Percent retention
1,N-TAMRA-Phe-Asp- Phe-Asp-Phe-Asp- Phe-Asp-Phe-C ({TAMRA}-FDFDFDFDF) [Peptide 2DOS-10],17%
2,N-TAMRA-Asp-Ser- Ala-Ser-Ser-Ser- Lys-C ({TAMRA}-DSASSSK) [Peptide 2DOS-7],2%

# Same assay, conditions: 400V scan, unwashed
row,Substance,Untreated fluorescence
1,N-TAMRA-Phe-Asp- Phe-Asp-Phe-Asp- Phe-Asp-Phe-C ({TAMRA}-FDFDFDFDF) [Peptide 2DOS-10],"602,771"
2,N-TAMRA-Asp-Ser- Ala-Ser-Ser-Ser- Lys-C ({TAMRA}-DSASSSK) [Peptide 2DOS-7],"706,200"

# Same assay, conditions: 400V scan, washed 15 minutes in 1 M NaCl in 10 mM tris-HCl (pH 8.0)
row,Substance,Retained fluorescence
1,N-TAMRA-Phe-Asp- Phe-Asp-Phe-Asp- Phe-Asp-Phe-C ({TAMRA}-FDFDFDFDF) [Peptide 2DOS-10],"100,265"
2,N-TAMRA-Asp-Ser- Ala-Ser-Ser-Ser- Lys-C ({TAMRA}-DSASSSK) [Peptide 2DOS-7],"15,766"

# Assay: Retention of peptides on Greiner polypropylene V-bottom wells
# Type: physicochemical
# Settings: 400V scan
# Protocol: as §10, §11, §12, §4, §13, §6, §7
# as §8, with “+3 mm” for “the platen”, “during” for “during,”
# as §9
row,Substance,Percent retention
1,N-TAMRA-Phe-Asp- Phe-Asp-Phe-Asp- Phe-Asp-Phe-C ({TAMRA}-FDFDFDFDF) [Peptide 2DOS-10],22%
2,N-TAMRA-Asp-Ser- Ala-Ser-Ser-Ser- Lys-C ({TAMRA}-DSASSSK) [Peptide 2DOS-7],5%

# Same assay, conditions: 400V scan, unwashed
row,Substance,Untreated fluorescence
1,N-TAMRA-Phe-Asp- Phe-Asp-Phe-Asp- Phe-Asp-Phe-C ({TAMRA}-FDFDFDFDF) [Peptide 2DOS-10],"3,043,118"
2,N-TAMRA-Asp-Ser- Ala-Ser-Ser-Ser- Lys-C ({TAMRA}-DSASSSK) [Peptide 2DOS-7],"3,751,280"

# Same assay, conditions: 400V scan, washed 15 minutes in 1 M NaCl in 10 mM tris-HCl (pH 8.0)
row,Substance,Retained fluorescence
1,N-TAMRA-Phe-Asp- Phe-Asp-Phe-Asp- Phe-Asp-Phe-C ({TAMRA}-FDFDFDFDF) [Peptide 2DOS-10],"654,623"
2,N-TAMRA-Asp-Ser- Ala-Ser-Ser-Ser- Lys-C ({TAMRA}-DSASSSK) [Peptide 2DOS-7],"205,430"

# Assay: Retention of peptides 2DOS-1 to 2DOS-16 on a hydrophobic surface (polypropylene microtitre plate wells), water wash
# Type: physicochemical
# Settings: 400V scan; 100 μl of 10 μM peptide before drying and washing
# Protocol: The retention of peptides 2DOS-1 to 2DOS-16 on a hydrophobic surface (the wells of a polypropylene microtitre plate) was then investigated.
# as §2
# 100 μl aliquots of 10 μM peptides 2DOS-1 to 2DOS-16 and 10 μM TAMRA were placed in the wells of a Costar microtitre plate as shown in FIG. 13:
# as §8, with “plate was” for “plates were”, “+3 mm” for “the platen”, “during” for “during,”
# The peptides were allowed to evaporate to dryness overnight in the dark and the microtitre plate was again scanned as described above.
# The wells were then washed ten times with 250 μl of water.
# The residual surface-bound peptides were finally resuspended in 100 μl of 10 mM tris-HCl (pH 8.0) in 50% (v/v) aqueous acetonitrile and the microtitre plate was again scanned as described above.
# as §9
# Quantification data (using the data from the 400V scan) is given in Table 2 and shown graphically in FIG. 15.
row,Substance,Initial fluorescence (×10^3)
1,N-TAMRA-Phe-Asp- Phe-Asp-Phe-Asp- Phe-Asp-Phe-C ({TAMRA}-FDFDFDFDF) [Peptide 2DOS-10],"28,479 ×10^3"
2,N-TAMRA-Asp-Ser- Ala-Ser-Ser-Ser- Lys-C ({TAMRA}-DSASSSK) [Peptide 2DOS-7],"29,134 ×10^3"

# Same assay, conditions: 400V scan; dried, washed ten times with 250 μl water, resuspended
row,Substance,Recovered fluorescence (×10^3)
1,N-TAMRA-Phe-Asp- Phe-Asp-Phe-Asp- Phe-Asp-Phe-C ({TAMRA}-FDFDFDFDF) [Peptide 2DOS-10],"2,884 ×10^3"
2,N-TAMRA-Asp-Ser- Ala-Ser-Ser-Ser- Lys-C ({TAMRA}-DSASSSK) [Peptide 2DOS-7],0 ×10^3
